According to paper PMC5759053 (Glia, 2017):

Molecular target: aquaporin-4 (AQP4) M1 isoform, expressed in HEK 293 cells (UniProt P55088-1 1-323)
Experiment: co-IP

Chain of aquaporin-4 (AQP4) M1 isoform, expressed in HEK 293 cells (P55088 whole entry, canonical isoform): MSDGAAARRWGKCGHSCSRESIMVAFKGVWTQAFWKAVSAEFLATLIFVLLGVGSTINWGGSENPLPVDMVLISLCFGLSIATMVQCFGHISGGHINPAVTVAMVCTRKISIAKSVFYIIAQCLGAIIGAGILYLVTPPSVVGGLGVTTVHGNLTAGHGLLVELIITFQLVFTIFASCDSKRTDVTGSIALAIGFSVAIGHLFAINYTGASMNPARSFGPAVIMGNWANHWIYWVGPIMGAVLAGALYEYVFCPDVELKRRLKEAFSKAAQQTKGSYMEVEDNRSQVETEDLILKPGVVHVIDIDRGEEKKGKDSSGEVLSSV

fold TRPM4 co-precipitated with AQP4 in SUR1+ cells against SUR1- cells: 4 fold
B1: TRPM4, expressed in HEK 293 cells (natural protein)
chain: not shown
